Data on one molecule can be found in publication PMC9534319 (2022).

As usually defined, the Kd is the equilibrium constant for the complex coming apart.

The test has as its target h219 (VH9/VK2). Kind of test: BLI. Background: In BLI a coated tip is dipped into the sample, and binding shifts an interference pattern.

B1: his tagged human LAIR1 recombinant protein (receptor)
chain: QEEDLPRPSISAEPGTVIPLGSHVTFVCRGPVGVQTFRLERDSRSTYNDTEDVSQASPSESEARFRIDSVREGNAGLYRCIYYKPPKWSEQSDYLELLVKESSGGPDSPDTEPGSSAGPTQRPSDNSHNEHAPASQGLKAEHLY
On to B1, for which the Kd turned out to be 0.66 nM.
